Laboratory results reported in US7354734B2, “Fungal proteins and nucleic acids encoding same” (priority 2003, dated 2008).
Entries after “also recorded” stand apart in the source; their conditions may differ. Where two headings read alike, the source gives them in different places.

What was measured:
fuLAP2 = type: biochemical, Aspergillus fumigatus; conditions: for effect of inhibitor on fuLAP2 activity: Leu-AMC 5 mM
[1] = tested on: T. rubrum secreted proteolytic activity; assay: Inhibition of T. rubrum secreted proteolytic activity (resorufin-labeled casein); type: biochemical, Trichophyton rubrum; conditions: T. rubrum culture medium, resorufin-labeled casein as substrate
Protocol: The proteolytic activity was measured using resorufin-labeled casein in phosphate buffer (20 mM; pH 7.4). The reaction mixture contained 0.02% substrate in a total volume of 0.5 ml. After incubation at 37° C., the undigested substrate was precipitated by trichloroacetic add (4% final concentration) and separated from the supernatant by centrifugation. The absorbance at 574 nm of the supernatant was measured after alkalinization by adding 500 μl Tris buffer (500 mM; pH 9.4). For practical purposes, one unit (U) of proteolytic activity was defined as that producing an absorbance of 0.001 per min.
T. rubrum was grown at 30° C. in a medium containing 0.2% soy protein as a sole carbon and nitrogen source. After 14 days of growth, a concomitant clarification of the culture medium was noted and a substantial proteolytic activity (400 U ml^−1) detected using resorufin-labeled casein as substrate. This proteolytic activity was 15% and 85% inhibited by PMSF and ortho-phenanthroline, respectively, attesting that serine and metalloproteases were secreted by T. rubrum. […] In addition, a high activity on substrates such as Leu-AMC and Leu-pNA was detected in the T. rubrum culture supernatant.

fuLAP1 = fuLAP1 (Aspergillus fumigatus, UniProt Q5VJG6); assay: biochemical; type: biochemical; conditions: for effect of inhibitor on fuLAP1 activity: Leu-AMC 5 mM
ruLAP1 = ruLAP1 (Trichophyton rubrum, UniProt Q5QHG5); type: biochemical
[2] = target: T1, pkLAP (microsomal LAP from porcine kidney) (Sus scrofa, UniProt P15145); assay: Effect of inhibitors and metallic cations on LAP activity (Leu-AMC); type: biochemical; conditions: for effect of inhibitor on pkLAP activity: Leu-AMC 5 mM
T1 construct: purchased Sigma; host or cells: porcine kidney
T1 sequence (P15145 1-963): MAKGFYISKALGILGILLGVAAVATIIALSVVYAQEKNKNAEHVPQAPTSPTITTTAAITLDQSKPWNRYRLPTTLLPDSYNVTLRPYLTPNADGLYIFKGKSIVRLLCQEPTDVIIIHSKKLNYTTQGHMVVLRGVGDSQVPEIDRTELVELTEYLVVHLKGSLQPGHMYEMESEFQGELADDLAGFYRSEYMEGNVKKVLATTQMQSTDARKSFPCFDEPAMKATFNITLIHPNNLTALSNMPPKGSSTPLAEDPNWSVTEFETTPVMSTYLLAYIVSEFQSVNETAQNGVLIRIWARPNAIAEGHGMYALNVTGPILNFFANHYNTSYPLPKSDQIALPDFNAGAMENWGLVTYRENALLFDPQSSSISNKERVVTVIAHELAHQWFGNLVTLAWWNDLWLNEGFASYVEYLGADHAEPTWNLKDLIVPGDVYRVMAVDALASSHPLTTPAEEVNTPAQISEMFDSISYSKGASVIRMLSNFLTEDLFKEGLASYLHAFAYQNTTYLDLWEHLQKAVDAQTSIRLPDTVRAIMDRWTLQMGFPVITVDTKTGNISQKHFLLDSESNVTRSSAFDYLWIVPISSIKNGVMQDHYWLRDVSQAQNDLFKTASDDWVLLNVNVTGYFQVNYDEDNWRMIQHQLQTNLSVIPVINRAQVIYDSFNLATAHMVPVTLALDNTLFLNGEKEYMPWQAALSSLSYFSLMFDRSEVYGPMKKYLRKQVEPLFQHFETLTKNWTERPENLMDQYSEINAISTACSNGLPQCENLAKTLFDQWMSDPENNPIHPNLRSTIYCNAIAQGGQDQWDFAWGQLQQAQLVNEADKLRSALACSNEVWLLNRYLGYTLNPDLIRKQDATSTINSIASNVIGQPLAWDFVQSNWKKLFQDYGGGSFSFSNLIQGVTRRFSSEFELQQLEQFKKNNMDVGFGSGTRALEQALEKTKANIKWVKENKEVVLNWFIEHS

ruLAP2 = ruLAP2 (Trichophyton rubrum, UniProt Q5QHG6); type: biochemical; conditions: for effect of inhibitor on ruLAP2 activity: Leu-AMC 5 mM
[3] = tested on: gliadin 33mer (fragment 57-89 of gliadin MM1); assay: Digestion of gliadin 33mer (RP-HPLC, ESI-MS); type: biochemical, wheat; conditions: 37° C.
[4] = tested on: gliadin 14mer PQPQLPYPQPQLPY (fragment 82-95 of α/β gliadin AIV); type: biochemical, wheat
[5] = type: biochemical
[6] = type: biochemical; conditions: substrate Lys(Abz)Pro-PropNA 5 mM, 37° C., 60 min
Gly-Ser-proNPY = assay: Digestion of Gly-Ser-proNPY; type: biochemical; conditions: overnight 37° C., 1 mM CoCl2, E/S 1:20
Text: The digested material was isolated by RP-HPLC and characterized by ESI-MS. […] The same result is obtained at an 1:[…] ratio. Digestion halts when the enzyme reaches a Xaa-Pro-motif, which in case of proNPY is Tyr-Pro.

Ala-proNPY = assay: Digestion of Ala-proNPY; type: biochemical; conditions: conditions as for Gly-Ser-proNPY
Protocol: The digested material was isolated by RP-HPLC and characterized by ESI-MS. […] The same result is obtained at an 1:[…] ratio. Digestion halts when the enzyme reaches a Xaa-Pro-motif, which in case of proNPY is Tyr-Pro. Conditions of incubation were the same as for Gly-Ser-proNPY.

[7] = inhibitor 40 μM, Leu-MCA substrate, 15 min pre-incubation

ruLAP1, sequence (Q5QHG5 21-373): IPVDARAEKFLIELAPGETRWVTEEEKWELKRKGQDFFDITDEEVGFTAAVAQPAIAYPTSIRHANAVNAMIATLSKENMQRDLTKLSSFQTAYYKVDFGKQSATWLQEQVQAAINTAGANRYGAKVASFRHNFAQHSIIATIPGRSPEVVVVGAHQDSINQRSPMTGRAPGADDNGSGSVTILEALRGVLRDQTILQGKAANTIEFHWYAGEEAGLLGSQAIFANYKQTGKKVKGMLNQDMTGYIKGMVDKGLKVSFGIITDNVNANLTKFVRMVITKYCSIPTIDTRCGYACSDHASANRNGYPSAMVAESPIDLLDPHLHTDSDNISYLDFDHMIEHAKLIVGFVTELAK
fuLAP1, sequence (Q5VJG6 16-388): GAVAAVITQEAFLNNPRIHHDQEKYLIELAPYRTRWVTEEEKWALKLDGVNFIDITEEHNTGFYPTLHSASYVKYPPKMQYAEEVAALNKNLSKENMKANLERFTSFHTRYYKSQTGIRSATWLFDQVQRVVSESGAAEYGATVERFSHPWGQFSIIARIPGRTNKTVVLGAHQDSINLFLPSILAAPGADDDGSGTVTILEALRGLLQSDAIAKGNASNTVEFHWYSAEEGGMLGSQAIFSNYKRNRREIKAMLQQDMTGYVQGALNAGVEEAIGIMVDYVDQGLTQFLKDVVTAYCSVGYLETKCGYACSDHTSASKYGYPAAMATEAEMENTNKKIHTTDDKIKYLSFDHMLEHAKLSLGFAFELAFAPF

Molecule: O=S(=O)(F)Cc1ccccc1 [PMSF]
- effect of inhibitor on fuLAP2 activity (fuLAP2): no clear inhibitory effects
- fuLAP2 activity as percentage of control reaction without inhibitor (fuLAP2; [7]): 84%
- inhibition of proteolytic activity [1]: 15%
- effect of inhibitor on fuLAP1 activity (fuLAP1): no clear inhibitory effects
- fuLAP1 activity as percentage of control reaction without inhibitor (fuLAP1; [7]): 156%
- effect of inhibitor on ruLAP1 activity (ruLAP1): no clear inhibitory effects
- ruLAP1 activity as percentage of control reaction without inhibitor (ruLAP1; 40 µM): 78%
- effect of inhibitor on pkLAP activity [2]: no clear inhibitory effects
- pkLAP activity as percentage of control reaction without inhibitor [2, 7]: 58%
- effect of inhibitor on ruLAP2 activity (ruLAP2): no clear inhibitory effects
- ruLAP2 activity as percentage of control reaction without inhibitor (ruLAP2; [7]): 79%

Molecule: c1cnc2c(c1)ccc1cccnc12 [ortho-phenantroline, ortho-phenanthroline]
- effect of inhibitor on fuLAP2 activity (fuLAP2): totally inhibited
- inhibition of proteolytic activity [1]: 85%
- effect of inhibitor on fuLAP1 activity (fuLAP1): totally inhibited
- effect of inhibitor on ruLAP1 activity (ruLAP1; Leu-AMC 5 mM): totally inhibited
- effect of inhibitor on pkLAP activity [2]: totally inhibited
- effect of inhibitor on ruLAP2 activity (ruLAP2): totally inhibited

B1: ruLAP2: T. rubrum leucine aminopeptidase, 495 amino acid residues (SEQ ID NO: 3) (protein, listed as Trichophyton rubrum)
chain: MKSQLLSLAVAVTTISQGVVGQEPFGWPFKPMVTQDDLQNKIKLKDIMAGVEKLQSFSDAHPEKNRVFGGNGHKDTVEWIYNEIKATGYYDVKKQEQVHLWSHAEAALNANGKDLKASAMSYSPPASKIMAELVVAKNNGCNATDYPANTQGKIVLVERGVCSFGEKSAQAGDAKAAGAIVYNNVPGSLAGTLGGLDKRHVPTAGLSQEDGKNLATLVASGKIDVTMNVISLFENRTTWNVIAETKGGDHNNVIMLGAHSDSVDAGPGINDNGSGSIGIMTVAKALTNFKLNNAVRFAWWTAEEFGLLGSTFYVNSLDDRELHKVKLYLNFDMIGSPNFANQIYDGDGSAYNMTGPAGSAEIEYLFEKFFDDQGIPHQPTAFTGRSDYSAFIKRNVPAGGLFTGAEVVKTPEQVKLFGGEAGVAYDKNYHRKGDTVANINKGAIFLNTRAIAYAIAEYARSLKGFPTRPKTGKRDVNPQYSKMPGGGCGHHTVFM
- digestion of gliadin 33mer, mixed with ruDPPIV ([3]; enzyme plus ruDPPIV (DPPIV)): totally digested; also recorded: same HPLC pattern
- degradation of gliadin 33mer, enzyme alone ([3]; within 4 h): less than 50%
- digestion of gliadin 14mer, supplemented with ruDPPIV [4]: complete breakdown
- digestion of gliadin 14mer, enzyme alone ([4]; 4 h, 37° C.): not digested
- digestion of denatured casein (denatured casein): sequentially digest
- hydrolytic activity toward Asp-AMC ([5]; compared to Leu-AMC): efficiently cleaved; also recorded: efficiently hydrolyze
- hydrolytic activity toward Glu-AMC ([5]; compared to Leu-AMC): efficiently cleaved; also recorded: efficiently hydrolyze
- hydrolytic activity toward Pro-AMC ([5]; compared to Leu-AMC): more efficiently cleaved
- hydrolytic activity toward Ser-AMC ([5]; compared to Leu-AMC): more efficiently cleaved
- hydrolytic activity toward Ala-AMC in comparison to Leu-MCA used as a standard ([5]; substrate Ala-AMC 5 mM, 37° C., 60 min): 33.3%
- hydrolytic activity toward Arg-AMC in comparison to Leu-MCA used as a standard ([5]; substrate Arg-AMC 5 mM, 37° C., 60 min): 1.9%
- hydrolytic activity toward Asn-AMC in comparison to Leu-MCA used as a standard ([5]; substrate Asn-AMC 5 mM, 37° C., 60 min): 114.6%
- hydrolytic activity toward Asp-AMC in comparison to Leu-MCA used as a standard ([5]; substrate Asp-AMC 5 mM, 37° C., 60 min): 3.8%
- hydrolytic activity toward Cys-AMC in comparison to Leu-MCA used as a standard ([5]; substrate Cys-AMC 5 mM, 37° C., 60 min): 14.9%
- hydrolytic activity toward Gln-AMC in comparison to Leu-MCA used as a standard ([5]; substrate Gln-AMC 5 mM, 37° C., 60 min): 49.9%
- hydrolytic activity toward Glu-AMC in comparison to Leu-MCA used as a standard ([5]; substrate Glu-AMC 5 mM, 37° C., 60 min): 3.7%
- hydrolytic activity toward Gly-AMC in comparison to Leu-MCA used as a standard ([5]; substrate Gly-AMC 5 mM, 37° C., 60 min): 3.3%
- hydrolytic activity toward Gly-Pro-AMC in comparison to Leu-MCA used as a standard ([5]; substrate Gly-Pro-AMC 5 mM, 37° C., 60 min): 7.2%
- hydrolytic activity toward His-AMC in comparison to Leu-MCA used as a standard ([5]; substrate His-AMC 5 mM, 37° C., 60 min): 0.6%
- hydrolytic activity toward Hyp-AMC in comparison to Leu-MCA used as a standard ([5]; substrate Hyp-AMC 5 mM, 37° C., 60 min): 14.2%
- hydrolytic activity toward Ile-AMC in comparison to Leu-MCA used as a standard ([5]; substrate Ile-AMC 5 mM, 37° C., 60 min): 6.4%
- hydrolysis of Leu-AMC ([5]; substrate Leu-AMC): efficiently hydrolyzed; also recorded: common preference
- hydrolytic activity toward Leu-AMC in comparison to Leu-MCA used as a standard ([5]; substrate Leu-AMC 5 mM, 37° C., 60 min): 100.0%
- hydrolytic activity toward Lys-AMC in comparison to Leu-MCA used as a standard ([5]; substrate Lys-AMC 5 mM, 37° C., 60 min): 4.6%
- hydrolytic activity toward Met-AMC in comparison to Leu-MCA used as a standard ([5]; substrate Met-AMC 5 mM, 37° C., 60 min): 119.7%
- hydrolytic activity toward Phe-AMC in comparison to Leu-MCA used as a standard ([5]; substrate Phe-AMC 5 mM, 37° C., 60 min): 17.1%
- hydrolytic activity toward Pro-AMC in comparison to Leu-MCA used as a standard ([5]; substrate Pro-AMC 5 mM, 37° C., 60 min): 21.4%
- hydrolytic activity toward Pyr-AMC in comparison to Leu-MCA used as a standard ([5]; substrate Pyr-AMC 5 mM, 37° C., 60 min): 0.0%
- hydrolytic activity toward Ser-AMC in comparison to Leu-MCA used as a standard ([5]; substrate Ser-AMC 5 mM, 37° C., 60 min): 26.1%
- hydrolytic activity toward Thr-AMC in comparison to Leu-MCA used as a standard ([5]; substrate Thr-AMC 5 mM, 37° C., 60 min): 0.9%
- hydrolytic activity toward Val-AMC in comparison to Leu-MCA used as a standard ([5]; substrate Val-AMC 5 mM, 37° C., 60 min): 4.8%
- hydrolytic activity toward Lys(Abz)Pro-PropNA in comparison to Leu-MCA used as a standard [6]: 0.0%
- N-terminal cleavage of Gly-Ser-proNPY (Gly-Ser-proNPY): cleavage of the two N-terminal residues Gly-Ser
- removal of N-terminal alanine from Ala-proNPY (Ala-proNPY): almost totally removed
